US20060204492A1 (published 2006)

Legend:
[1] = molecular target: integrin αvβ3 on cells (M21 human melanoma cells; human umbilical vein endothelial cells) (human) (UniProt P06756); assay: cell-based or functional assay
[2] = molecular target: T1, integrin αvβ3, purified from human placenta (human, UniProt P06756 31-1048; P05106 27-788); assay: SPR (BIAcore), purified Fab over immobilized αvβ3
T1 construct: mature; Native heterodimer, immobilized on ELISA plates or on the BIAcore chip; biotinylated in capture lift and capture ELISA screens; also called αvβ3 receptor; vitronectin receptor
T1 sequence (P06756 31-1048, form in doubt, chain 1 of 2): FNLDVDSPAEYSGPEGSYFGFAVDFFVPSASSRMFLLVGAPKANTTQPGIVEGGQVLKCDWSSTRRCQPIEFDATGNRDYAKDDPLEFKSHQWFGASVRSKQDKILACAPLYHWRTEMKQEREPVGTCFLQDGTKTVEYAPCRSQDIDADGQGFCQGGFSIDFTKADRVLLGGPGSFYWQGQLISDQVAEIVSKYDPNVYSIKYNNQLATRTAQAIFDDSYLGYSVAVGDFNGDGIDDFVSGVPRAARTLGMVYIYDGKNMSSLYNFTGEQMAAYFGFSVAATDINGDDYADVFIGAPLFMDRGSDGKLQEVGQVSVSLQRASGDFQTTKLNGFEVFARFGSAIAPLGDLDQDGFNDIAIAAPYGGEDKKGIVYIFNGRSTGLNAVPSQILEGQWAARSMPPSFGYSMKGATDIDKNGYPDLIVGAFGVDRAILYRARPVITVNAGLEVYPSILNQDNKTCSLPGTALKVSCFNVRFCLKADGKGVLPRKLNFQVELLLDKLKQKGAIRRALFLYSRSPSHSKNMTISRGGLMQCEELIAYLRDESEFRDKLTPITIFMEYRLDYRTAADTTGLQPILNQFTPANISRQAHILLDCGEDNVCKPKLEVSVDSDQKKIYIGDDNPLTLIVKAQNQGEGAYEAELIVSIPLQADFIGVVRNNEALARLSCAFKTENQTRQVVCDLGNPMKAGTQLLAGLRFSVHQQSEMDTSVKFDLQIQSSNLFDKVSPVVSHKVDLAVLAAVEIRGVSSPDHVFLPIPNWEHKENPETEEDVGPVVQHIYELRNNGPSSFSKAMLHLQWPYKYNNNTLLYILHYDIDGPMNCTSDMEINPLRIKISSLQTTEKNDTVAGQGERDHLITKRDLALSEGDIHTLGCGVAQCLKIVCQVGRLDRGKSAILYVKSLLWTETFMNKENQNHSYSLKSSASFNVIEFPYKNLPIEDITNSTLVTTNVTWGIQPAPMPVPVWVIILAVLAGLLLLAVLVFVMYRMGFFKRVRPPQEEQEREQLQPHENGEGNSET
T1 sequence (P05106 27-788, form in doubt, chain 2 of 2): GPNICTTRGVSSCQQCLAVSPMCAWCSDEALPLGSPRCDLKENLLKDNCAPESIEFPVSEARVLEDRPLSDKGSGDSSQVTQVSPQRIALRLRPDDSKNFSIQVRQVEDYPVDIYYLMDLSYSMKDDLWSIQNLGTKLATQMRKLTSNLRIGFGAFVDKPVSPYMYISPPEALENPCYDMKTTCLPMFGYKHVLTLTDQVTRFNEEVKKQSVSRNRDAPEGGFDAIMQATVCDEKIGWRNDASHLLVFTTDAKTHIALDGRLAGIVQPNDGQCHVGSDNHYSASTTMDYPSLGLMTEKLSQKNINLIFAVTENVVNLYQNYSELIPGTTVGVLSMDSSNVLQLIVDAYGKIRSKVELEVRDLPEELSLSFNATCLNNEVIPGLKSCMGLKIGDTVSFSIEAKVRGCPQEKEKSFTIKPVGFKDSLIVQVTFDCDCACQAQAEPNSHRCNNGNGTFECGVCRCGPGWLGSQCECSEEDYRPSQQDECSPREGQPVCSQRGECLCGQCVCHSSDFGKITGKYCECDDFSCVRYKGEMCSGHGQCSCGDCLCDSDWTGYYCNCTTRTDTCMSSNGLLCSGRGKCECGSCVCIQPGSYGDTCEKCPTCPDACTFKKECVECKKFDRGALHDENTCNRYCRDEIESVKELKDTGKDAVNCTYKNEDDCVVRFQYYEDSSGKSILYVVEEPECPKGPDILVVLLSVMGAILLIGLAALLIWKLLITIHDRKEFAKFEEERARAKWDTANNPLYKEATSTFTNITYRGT
Method: The affinities of select variants were further characterized by utilizing surface plasmon resonance (BIAcore) to measure the association and dissociation rates of purified Fab with immobilized αᵥβ₃. […] To obtain association rate constants (kₒₙ), the binding rate at five different Fab concentrations, ranging from 5-40 μg/ml in 50 mM Tris-HCl, pH 7.4, 100 mM NaCl, 2 mM CaCl₂, and 1 mM MgCl₂, was determined at a flow rate of 10 μl/min. Dissociation rate constants (koff) were the average of five measurements obtained by analyzing the dissociation phase at an increased flow rate (40 μl/min). Sensorgrams were analyzed with the BIAevaluation 2.1 program (Pharmacia). Residual Fab was removed after each measurement with 10 mM HCl, 2 mM CaCl₂ and 1 mM MgCl₂.

[3] = molecular target: T1, integrin αvβ3, purified from human …; assay: ELISA titration of Fab on immobilized αvβ3
Method: (§1) Just prior to use, the plates were washed two times and were then incubated 1 h at 25° C. with various dilutions of Fab. […] All dilutions and washes were in 50 mM Tris-HCl, pH 7.4, 100 mM NaCl, 2 mM CaCl₂, and 1 mM MgCl₂.

[4] = molecular target: T1, integrin αvβ3, purified from human …; assay: SPR (BIAcore), purified Fab over immobilized αvβ3; remark: listed apart in the source
[5] = molecular target: T1, integrin αvβ3, purified from human …; assay: ELISA titration of bacterial lysate Fab on immobilized αvβ3, inflection points
Method: as §1

integrin αvβ5 = molecular target: T2, integrin αvβ5 (human, UniProt P06756 31-1048; P18084 24-799); assay: ELISA on coated integrin, goat anti-human IgG-alkaline phosphatase
T2 construct: mature
T2 sequence (P06756 31-1048, chain 1 of 2): as the sequence (P06756 31-1048, form in doubt, chain 1 of 2) above
T2 sequence (P18084 24-799, chain 2 of 2): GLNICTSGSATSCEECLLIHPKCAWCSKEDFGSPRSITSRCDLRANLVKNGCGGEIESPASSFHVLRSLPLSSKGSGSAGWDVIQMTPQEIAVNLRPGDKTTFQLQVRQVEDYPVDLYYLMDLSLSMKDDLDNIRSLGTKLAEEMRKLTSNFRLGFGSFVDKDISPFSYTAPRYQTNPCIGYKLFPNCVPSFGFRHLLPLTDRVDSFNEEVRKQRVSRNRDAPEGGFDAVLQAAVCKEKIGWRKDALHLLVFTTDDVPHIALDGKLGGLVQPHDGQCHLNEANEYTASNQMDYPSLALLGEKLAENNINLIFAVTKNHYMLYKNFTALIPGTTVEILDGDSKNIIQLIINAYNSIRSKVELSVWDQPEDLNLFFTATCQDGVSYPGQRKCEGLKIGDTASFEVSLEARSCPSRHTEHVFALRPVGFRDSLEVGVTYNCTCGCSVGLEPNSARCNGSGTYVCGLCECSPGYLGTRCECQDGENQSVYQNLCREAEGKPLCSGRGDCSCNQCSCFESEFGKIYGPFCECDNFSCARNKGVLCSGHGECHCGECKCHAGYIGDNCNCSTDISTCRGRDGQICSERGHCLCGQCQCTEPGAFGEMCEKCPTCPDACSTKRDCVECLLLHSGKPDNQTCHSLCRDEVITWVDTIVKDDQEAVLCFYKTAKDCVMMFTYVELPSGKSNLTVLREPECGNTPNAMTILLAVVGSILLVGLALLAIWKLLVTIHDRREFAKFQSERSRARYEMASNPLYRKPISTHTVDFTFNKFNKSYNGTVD
Method: Antibody binding activity was assessed by ELISA using a goat anti-human IgG-alkaline phosphatase conjugate.

integrin αvβ3 on cells (M21 human melanoma cells; human umbilical vein endothelial cells) (human), sequence (P06756 31-1048, chain 1 of 2): as the sequence (P06756 31-1048, form in doubt, chain 1 of 2) above
integrin αvβ3 on cells (M21 human melanoma cells; human umbilical vein endothelial cells) (human), sequence (P05106 27-788, chain 2 of 2, further chain): as the sequence (P05106 27-788, form in doubt, chain 2 of 2) above

Row | inhibition of M21 cell adhesion to fibrinogen: inhibitory concentration for 50% maximal adhesion [1] [ng/mL] | inhibition of vitronectin-induced migration of human umbilical vein endothelial cells (transwell), 5 µg/ml antibody [1] [%] | Kd [2] [nM] | koff [2] [s⁻¹] | kon [2] [M⁻¹ s⁻¹] | fold enhanced binding over parent LM609 grafted antibody [3] [fold] | fold slower dissociation than LM609 grafted antibody [4] [fold] | fold improved affinity over LM609 grafted antibody [5] [fold] | fold higher affinity than LM609 grafted antibody [4] [fold] | fold enhanced affinity over LM609 grafted antibody [4] [fold] | fold increase in affinity over parent LM609 grafted antibody [4] [fold] | binding result (integrin αvβ5) | Molecule
1 | 50 | 60 | – | – | – | – | – | – | – | – | – | – | monoclonal antibody LM609
2 | – | – | 2.5 | 0.00042 | 167000 | > 3 | 11.8 | – | – | – | – | – | LM609 grafted antibody variant F32 (Fab, V domains shown, Fab) VH: QVQLVESGGGVVQPGRSLRLSCAASGFTFSSYDMSWVRQAPGKGLEWVAKVSSGGGSTYYLDTVQGRFTISRDNSKNTLYLQMNSLRAEDTAVYYCARHNYGSFAYWGQGTTVTVSS VL: EIVLTQSPATLSLSPGERATLSCQASQSISNFLHWYQQRPGQAPRLLIRYRSQSISGIPARFSGSGSGTDFTLTISSLEPEDFAVYYCQQSGSWPHTFGGGTKVEIK
3 | – | – | 6 | 0.00144 | 242000 | > 3 | – | > 3 | 4.6 | – | – | – | LM609 grafted antibody variant S102 (Fab, V domains shown, Fab; also called clone S102) VH: QVQLVESGGGVVQPGRSLRLSCAASGFTFSSYDMSWVRQAPGKGLEWVAKVSSGGGSTYYLDTVQGRFTISRDNSKNTLYLQMNSLRAEDTAVYYCARHNYGSFASWGQGTTVTVSS VL: EIVLTQSPATLSLSPGERATLSCQASQSISNHLHWYQQRPGQAPRLLIRYRSQSISGIPARFSGSGSGTDFTLTISSLEPEDFAVYYCQQSGSWPHTFGGGTKVEIK
4 | – | – | 5.8 | 0.00143 | 246000 | > 3 | – | – | – | – | – | – | LM609 grafted antibody variant T102 (Fab, V domains shown, Fab) VH: QVQLVESGGGVVQPGRSLRLSCAASGFTFSSYDMSWVRQAPGKGLEWVAKVSSGGGSTYYLDTVQGRFTISRDNSKNTLYLQMNSLRAEDTAVYYCARHNYGSFATWGQGTTVTVSS VL: EIVLTQSPATLSLSPGERATLSCQASQSISNHLHWYQQRPGQAPRLLIRYRSQSISGIPARFSGSGSGTDFTLTISSLEPEDFAVYYCQQSGSWPHTFGGGTKVEIK
5 | – | – | 12.5 | 0.00201 | 161000 | > 3 | – | – | – | 2.2 | – | – | LM609 grafted antibody variant G102 (Fab, V domains shown, Fab; also called clone G102) VH: QVQLVESGGGVVQPGRSLRLSCAASGFTFSSYDMSWVRQAPGKGLEWVAKVSSGGGSTYYLDTVQGRFTISRDNSKNTLYLQMNSLRAEDTAVYYCARHNYGSFAGWGQGTTVTVSS VL: EIVLTQSPATLSLSPGERATLSCQASQSISNHLHWYQQRPGQAPRLLIRYRSQSISGIPARFSGSGSGTDFTLTISSLEPEDFAVYYCQQSGSWPHTFGGGTKVEIK
6 | – | – | 2.2 | 0.00048 | 218000 | > 3 | – | > 3 | – | – | 12.5 | – | LM609 grafted antibody variant Y101 (Fab, V domains shown, Fab) VH: QVQLVESGGGVVQPGRSLRLSCAASGFTFSSYDMSWVRQAPGKGLEWVAKVSSGGGSTYYLDTVQGRFTISRDNSKNTLYLQMNSLRAEDTAVYYCARHNYGSFYYWGQGTTVTVSS VL: EIVLTQSPATLSLSPGERATLSCQASQSISNHLHWYQQRPGQAPRLLIRYRSQSISGIPARFSGSGSGTDFTLTISSLEPEDFAVYYCQQSGSWPHTFGGGTKVEIK
7 | – | – | 13.8 | 0.00303 | 220000 | > 3 | 1.6 | – | – | – | – | – | LM609 grafted antibody variant H97 (Fab, V domains shown, Fab) VH: QVQLVESGGGVVQPGRSLRLSCAASGFTFSSYDMSWVRQAPGKGLEWVAKVSSGGGSTYYLDTVQGRFTISRDNSKNTLYLQMNSLRAEDTAVYYCARHNHGSFAYWGQGTTVTVSS VL: EIVLTQSPATLSLSPGERATLSCQASQSISNHLHWYQQRPGQAPRLLIRYRSQSISGIPARFSGSGSGTDFTLTISSLEPEDFAVYYCQQSGSWPHTFGGGTKVEIK
8 | – | – | – | – | – | – | – | – | – | – | – | no binding (tested: over 1.0 mg/ml) | Vitaxin (antibody, human IgG1, V domains shown, Human IgG1 constant region and human kappa constant region; also called huLM609M13 1135-4; grafted LM609) VH: QVQLVESGGGVVQPGRSLRLSCAASGFTFSSYDMSWVRQAPGKGLEWVAKVSSGGGSTYYLDTVQGRFTISRDNSKNTLYLQMNSLRAEDTAVYYCARHNYGSFAYWGQGTTVTVSS VL: EIVLTQSPATLSLSPGERATLSCQASQSISNHLHWYQQRPGQAPRLLIKYRSQSISGIPARFSGSGSGTDFTLTISSLEPEDFAVYYCQQSGSWPHTFGGGTKVEIK
9 | – | – | 14.3 | 0.00251 | 175000 | > 3 | – | > 3 | – | – | – | – | LM609 grafted antibody variant Y100 (Fab, V domains shown, Fab) VH: QVQLVESGGGVVQPGRSLRLSCAASGFTFSSYDMSWVRQAPGKGLEWVAKVSSGGGSTYYLDTVQGRFTISRDNSKNTLYLQMNSLRAEDTAVYYCARHNYGSYAYWGQGTTVTVSS VL: EIVLTQSPATLSLSPGERATLSCQASQSISNHLHWYQQRPGQAPRLLIRYRSQSISGIPARFSGSGSGTDFTLTISSLEPEDFAVYYCQQSGSWPHTFGGGTKVEIK
